± gives the standard error. For part of these data: Variants at the floor of the assay were thinned out.
B1: glmS ribozyme (parent)
chain: AUAAAAGCGCCAGAACUACAGAAAUGUAGUUGACGAGGAGGAGGUUUAUCGAAUUUUCGGCGGAUGCCUCCAAA

Tests used:
Conditions in all cases: with glucosamine-6-phosphate
glucosamine-6-phosphate [1] = variants of: B1; test: kcat; higher = faster cleavage; RNA array
How it was run: (§1)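 kobs was derived by fitting per-tile medians to one- or two-exponential decays after normalising signals to baseline and to non-cleaving reference variants. Those signals came from barcoded ribozyme variants transcribed in situ by E. coli RNA polymerase on sequenced MiSeq chips, followed through a hybridised Cy3 probe at 37 °C and imaged over ~14 h. Glucosamine-6-phosphate (40 μM to 10 mM) in HEPES/KCl/Mg(OAc)2 buffer was flowed in. Weighted Michaelis–Menten fits across concentrations then gave kcat and KM.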

glucosamine-6-phosphate [2] = variants of: B1; test: KM; higher = weaker cofactor use; RNA array
How it was run: as §1

glucosamine-6-phosphate [3] = variants of: B1; test: self-cleavage kobs at 40 uM GlcN6P; higher = faster cleavage; RNA array
How it was run: as §1

glucosamine-6-phosphate [4] = variants of: B1; test: self-cleavage kobs at 160 uM GlcN6P; higher = faster cleavage; RNA array
How it was run: as §1

glucosamine-6-phosphate [5] = variants of: B1; test: self-cleavage kobs at 640 uM GlcN6P; higher = faster cleavage; RNA array
How it was run: as §1

glucosamine-6-phosphate [6] = variants of: B1; test: self-cleavage kobs at 2500 uM GlcN6P; higher = faster cleavage; RNA array
How it was run: as §1

glucosamine-6-phosphate [7] = variants of: B1; test: self-cleavage kobs at 10000 uM GlcN6P; higher = faster cleavage; RNA array
How it was run: as §1

Variant | kcat (glucosamine-6-phosphate [1]) [s⁻¹] | KM (glucosamine-6-phosphate [2]) [µM] | self-cleavage kobs at 40 uM GlcN6P (glucosamine-6-phosphate [3]) [s⁻¹] | self-cleavage kobs at 160 uM GlcN6P (glucosamine-6-phosphate [4]) [s⁻¹] | self-cleavage kobs at 640 uM GlcN6P (glucosamine-6-phosphate [5]) [s⁻¹] | self-cleavage kobs at 2500 uM GlcN6P (glucosamine-6-phosphate [6]) [s⁻¹] | self-cleavage kobs at 10000 uM GlcN6P (glucosamine-6-phosphate [7]) [s⁻¹]
A15C A42G | 0.00745 ± 0.00078 | 1450 ± 220 | 0.000206 ± 3.8e-05 | 0.000843 ± 0.00038 | 0.00216 ± 0.00062 | 0.00411 ± 0.001 | 0.00721 ± 0.0015
A14G U46A | 0.0109 ± 0.0043 |  | 0.000166 ± 3.1e-05 | 0.000271 ± 7.3e-05 | 0.00157 ± 0.00055 | 0.0054 ± 0.001 | 0.00723 ± 0.0012
A14U G38C | < 1e-05 |  | < 1e-05 |  | < 1e-05 | < 1e-05 | < 1e-05
A14G C58U C61U | 1.33e-05 ± 2.7e-06 |  | < 1e-05 |  |  |  | 
A15U A33C | 5.35e-05 ± 2.5e-06 | 813 ± 280 | < 1e-05 |  |  | 4.34e-05 ± 1.3e-05 | 4.91e-05 ± 6e-06
A14G A42U | 0.000931 ± 0.00011 | 3180 ± 600 |  | 5.25e-05 ± 1.1e-05 | 0.000152 ± 2.5e-05 | 0.000357 ± 7e-05 | 0.000738 ± 9.3e-05
A15G U56A | 0.00941 ± 0.0033 | 1700 ± 790 | 0.000313 ± 3.4e-05 | 0.000554 ± 9.9e-05 | 0.00267 ± 0.00031 | 0.00536 ± 0.0015 | 0.00825 ± 0.0011
A14G G66U | 0.00542 ± 0.00096 | 2220 ± 560 | 0.000114 ± 1.2e-05 | 0.00039 ± 4e-05 | 0.00094 ± 0.00012 | 0.00287 ± 0.00033 | 0.00464 ± 0.0004
A14G C16U G43A C67G | 0.00284 ± 0.00076 | 2840 ± 1100 | 4.98e-05 ± 2.2e-05 | 0.000207 ± 7.1e-05 | 0.000459 ± 8.8e-05 | 0.00221 ± 0.00072 | 0.00217 ± 0.00045
A14U U69A | 0.000113 ± 2e-05 | 802 ± 390 |  |  | 5.17e-05 ± 1.1e-05 | 7.13e-05 ± 1.7e-05 | 0.000122 ± 2.4e-05
A14C U47G | 0.00101 ± 0.00014 | 2500 ± 550 | 2.31e-05 ± 1.1e-05 | 6.35e-05 ± 1.2e-05 | 0.000208 ± 3e-05 | 0.000422 ± 8.2e-05 | 0.000874 ± 0.00012
A15C A48U | 5.55e-05 ± 7.9e-06 | 2840 ± 1100 | < 1e-05 |  |  | 2.83e-05 ± 1.2e-05 | 4.26e-05 ± 1.2e-05
A14U A15G C34G C50A G62U | 1.29e-05 ± 5.5e-06 |  |  |  |  |  | 
A14G A52U | 0.000706 ± 1.3e-05 | 3890 ± 120 |  |  | 9.98e-05 ± 1.6e-05 | 0.000274 ± 5.2e-05 | 0.000509 ± 6.5e-05
A14U G32U | 0.000874 ± 0.00012 | 3050 ± 730 |  | 7.67e-05 ± 1.7e-05 | 0.000142 ± 1.2e-05 | 0.000422 ± 4e-05 | 0.00066 ± 5.2e-05
A14U U45G C68U | 0.000104 ± 5.1e-06 | 786 ± 160 |  |  | 4.96e-05 ± 1.7e-05 | 7.43e-05 ± 2.3e-05 | 9.78e-05 ± 1.7e-05
A14U U30A | 0.00136 ± 0.00037 | 2250 ± 960 | 3.62e-05 ± 1e-05 | 8.35e-05 ± 1.7e-05 | 0.000337 ± 5.2e-05 | 0.000564 ± 9.8e-05 | 0.00134 ± 0.00021
A15C U57G | 2.37e-05 ± 5.5e-06 |  | < 1e-05 | < 1e-05 |  |  | 
A14C G29U | 0.000857 ± 0.00017 | 1650 ± 550 | 4.05e-05 ± 1.2e-05 | 5.99e-05 ± 1.3e-05 | 0.000267 ± 3.9e-05 | 0.000556 ± 8.5e-05 | 0.000697 ± 0.0001
A14C U57A U69A | 3.51e-05 ± 1.3e-05 |  |  |  | 4.77e-05 ± 2.2e-05 |  | 
A14U U49G A53U U69G | 6.87e-05 ± 2.3e-05 |  |  | 8.99e-05 ± 3.4e-05 |  | 7.58e-05 ± 2.1e-05 | 
A14U G40A | 0.0018 ± 0.0003 | 1500 ± 450 | 4.43e-05 ± 1e-05 |  | 0.000643 ± 0.00013 |  | 0.00161 ± 0.00021
A14U G40C | 0.000633 ± 5.1e-05 | 1980 ± 320 | 2.05e-05 ± 9e-06 | 5.2e-05 ± 9.2e-06 | 0.000142 ± 1.5e-05 | 0.000391 ± 4.2e-05 | 0.000522 ± 3.7e-05
A14U U57G | 2.1e-05 ± 4e-06 |  | < 1e-05 |  |  |  | 
A14U U57C | 7.65e-05 ± 1.4e-05 |  |  |  |  | 5.75e-05 ± 1.1e-05 | 6.38e-05 ± 1.2e-05
A15G C16G C71G | 0.000103 ± 1.4e-05 |  |  |  |  | 0.000115 ± 4e-05 | 9.34e-05 ± 2.6e-05
A15C C68G | 2.69e-05 ± 6.5e-06 |  |  |  |  | 3.22e-05 ± 9e-06 | 
A14U U54A | 0.00906 ± 0.0023 | 1560 ± 560 | 0.000324 ± 5.9e-05 | 0.000834 ± 0.00014 | 0.00228 ± 0.00033 | 0.00565 ± 0.00092 | 0.00909 ± 0.002
A14U G66U | 0.000298 ± 3.6e-05 | 2140 ± 550 |  | 4.39e-05 ± 1.8e-05 | 6.34e-05 ± 1.1e-05 | 0.000175 ± 2.9e-05 | 0.000243 ± 2.6e-05
A14U G66C | 0.000139 ± 1.3e-05 | 5220 ± 1100 |  |  |  | 4.36e-05 ± 8e-06 | 9.18e-05 ± 1e-05

From the supplement of paper PMC7125110
